Reference: patent US6077686, “Shc proteins” (Mount Sinai Hospital Corporation, dated 2000)
Numbering of substitutions follows the chain as printed. In names and notes the source's numbering stands.

B1: GST fusion protein of the ShcC PTB domain (wild type) (other)
chain: LGPGVTYVVKYLGCIEVLRSMRSLDFSTRTQVTREAISRVCERVPGAKGALKKRKPPSKMLSSILGKSNLQFAGMSISLTISTASLNLRTPDSKQIIANHHMRSISFASGGDPDTTDYVAYVAKDPVNRRACHILECCDGLAQDVIGSIGQAFELRFKQYL
B2: GST-ShcC PTB domain mutant E63G (other)
chain: B1 chain with E35G
B3: GST-ShcC PTB domain mutant G32R/A136T/C166R (other)
chain: B1 chain with G4R, A108T, C138R
B4: GST-ShcC PTB domain mutant T58A (other)
chain: B1 chain with T30A
B5: GST-ShcC PTB domain mutant S86C (other)
chain: B1 chain with S58C
B6: GST-ShcC PTB domain mutant G30R/H128Q (other)
chain: B1 chain with G2R, H100Q
B7: GST-ShcC PTB domain mutant G32R (other)
chain: B1 chain with G4R
B8: GST-ShcC PTB domain mutant G139E/D140N (other)
chain: B1 chain with G111E, D112N
B9: GST-ShcC PTB domain mutant T118S (other)
chain: B1 chain with T90S
B10: GST-ShcC PTB domain mutant M130I/S132V (other)
chain: B1 chain with M102I, S104V
B11: GST-ShcC PTB domain mutant V36M (other)
chain: B1 chain with V8M
B12: GST-ShcC PTB domain mutant A136T (other)
chain: B1 chain with A108T
B13: GST-ShcC PTB domain mutant A136T/C166R (other)
chain: B1 chain with A108T, C138R
B14: GST-ShcC PTB domain mutant T111I (other)
chain: B1 chain with T83I

Molecular target: EGFR in living cells (293T cells stimulated with EGF; NIH/3T3 cells transformed by overexpression of the EGFR)
Experiment: not given

Row | Molecule | EGF-induced MAPK activity (Gal4-Elk-1 / Gal4-Luc luciferase in 293T cells)
1 | isolated ShcC SH2 domain expressed in cells (HA epitope-tagged SH2 domain) | 50%

Molecular target: autophosphorylated EGF-receptor (from lysates of EGF-stimulated A431 cells) (human, UniProt P00533, autophosphorylated on tyrosine (sites not given))
Experiment: binding of GST-PTB to the activated EGFR, normalized to wild type

Row | Molecule | Relative Binding
2 | B1 | 1
3 | B2 | 0.087
4 | B3 | 0.14
5 | B4 | 1.2
6 | B5 | 1.2
7 | B6 | 1
8 | B7 | 0.93
9 | B8 | 0.073
10 | B9 | 0.81
11 | B10 | 1
12 | B11 | 1
13 | B12 | 0.16
14 | B13 | 0.12
15 | B14 | 1.2
